According to paper PMC3654483 (Bioscience Reports, 2013):

B1: Sirt1-214-747 (domain or fragment)
chain: ELDDMTLWQIVINILSEPPKRKKRKDINTIEDAVKLLQECKKIIVLTGAGVSVSCGIPDFRSRDGIYARLAVDFPDLPDPQAMFDIEYFRKDPRPFFKFAKEIYPGQFQPSLCHKFIALSDKEGKLLRNYTQNIDTLEQVAGIQRIIQCHGSFATASCLICKYKVDCEAVRGDIFNQVVPRCPRCPADEPLAIMKPEIVFFGENLPEQFHRAMKYDKDEVDLLIVIGSSLKVRPVALIPSSIPHEVPQILINREPLPHLHFDVELLGDCDVIINELCHRLGGEYAKLCCNPVKLSEITEKPPRTQKELAYLSELPPTPLHVSEDSSSPERTSPPDSSVIVTLLDQAAKSNDDLDVSESKGCMEEKPQEVQTSRNVESIAEQMENPDLKNVGSSTGEKNERTSVAGTVRKCWPNRVAKEQISRRLDGNQYLFLPPNRYIFHGAEVYSDSEDDVLSSSSCGSNSDSGTCQSPSLEEPMEDESEIEEFYNGLEDEPDVPERAGGAGFGTDGDDQEAINEAISVKQEVTDMNYPSNKS
B2: Sirt1-214-664 (domain or fragment)
chain: ELDDMTLWQIVINILSEPPKRKKRKDINTIEDAVKLLQECKKIIVLTGAGVSVSCGIPDFRSRDGIYARLAVDFPDLPDPQAMFDIEYFRKDPRPFFKFAKEIYPGQFQPSLCHKFIALSDKEGKLLRNYTQNIDTLEQVAGIQRIIQCHGSFATASCLICKYKVDCEAVRGDIFNQVVPRCPRCPADEPLAIMKPEIVFFGENLPEQFHRAMKYDKDEVDLLIVIGSSLKVRPVALIPSSIPHEVPQILINREPLPHLHFDVELLGDCDVIINELCHRLGGEYAKLCCNPVKLSEITEKPPRTQKELAYLSELPPTPLHVSEDSSSPERTSPPDSSVIVTLLDQAAKSNDDLDVSESKGCMEEKPQEVQTSRNVESIAEQMENPDLKNVGSSTGEKNERTSVAGTVRKCWPNRVAKEQISRRLDGNQYLFLPPNRYIFHGAEVYSDSEDD

Biological target: the molecule itself
Assay: AUC

Protein	binding result
B1	binds
B2	binds
